Key:
DMPK [1] = test: DMPK knockdown by anti-TfR1 antibody-oligonucleotide conjugates in NHP myotubes; assay type: cell-based, non-human primate; conditions: conjugate with control DMPK-ASO, 72 hours, concentration not stated (0.5, 5, 50 nM tested)
Experimental: (§1) The purified complexes were then tested for cellular internalization and inhibition of the target gene, DMPK. Non-human primate (NHP) or DM1 (donated by DM1 patients) cells were grown in 96-well plates and differentiated into myotubes for 7 days. Cells were then treated with escalating concentrations (0.5 nM, 5 nM, 50 nM) of each complex for 72 hours. Cells were harvested, RNA was isolated, and reverse transcription was performed to generate cDNA. qPCR was performed using TaqMan kits specific for Ppib (control) and DMPK on the QuantStudio 7. The relative amounts of remaining DMPK transcript in treated vs non-treated cells was were calculated and the results are shown in Table 14 and FIG. 20.
as §1, with “of” for “of the target gene,”, “in” for “in Table 14 and”, “23.” for “20.”

DMPK [2] = test: DMPK knockdown by anti-TfR1 antibody-oligonucleotide conjugates in DM1 patient myotubes; assay type: cell-based, human; conditions: for % knockdown of DMPK in cells from human DM1 patients using Antibody-DMPK ASO conjugate: DM1 patient myotubes, conjugate with control DMPK-ASO, 72 hours, concentration not stated (0.5, 5, 50 nM tested); for activity in delivering a payload (DMPK ASO) and achieving DMPK knockdown compared to the control antibody 15G11: conjugates with control DMPK-ASO, in either cyno cells or human DM1 patient cells
Experimental: as §1
as §1, with “of” for “of the target gene,”, “in” for “in Table 14 and”, “23.” for “20.”

hTfR1 = hTfR1 (Homo sapiens, UniProt P02786); test: Binding kinetics of anti-TfR1 antibodies on Carterra LSA, hTfR1; conditions: Carterra LSA at 25 C
Chain of hTfR1 (P02786 whole entry): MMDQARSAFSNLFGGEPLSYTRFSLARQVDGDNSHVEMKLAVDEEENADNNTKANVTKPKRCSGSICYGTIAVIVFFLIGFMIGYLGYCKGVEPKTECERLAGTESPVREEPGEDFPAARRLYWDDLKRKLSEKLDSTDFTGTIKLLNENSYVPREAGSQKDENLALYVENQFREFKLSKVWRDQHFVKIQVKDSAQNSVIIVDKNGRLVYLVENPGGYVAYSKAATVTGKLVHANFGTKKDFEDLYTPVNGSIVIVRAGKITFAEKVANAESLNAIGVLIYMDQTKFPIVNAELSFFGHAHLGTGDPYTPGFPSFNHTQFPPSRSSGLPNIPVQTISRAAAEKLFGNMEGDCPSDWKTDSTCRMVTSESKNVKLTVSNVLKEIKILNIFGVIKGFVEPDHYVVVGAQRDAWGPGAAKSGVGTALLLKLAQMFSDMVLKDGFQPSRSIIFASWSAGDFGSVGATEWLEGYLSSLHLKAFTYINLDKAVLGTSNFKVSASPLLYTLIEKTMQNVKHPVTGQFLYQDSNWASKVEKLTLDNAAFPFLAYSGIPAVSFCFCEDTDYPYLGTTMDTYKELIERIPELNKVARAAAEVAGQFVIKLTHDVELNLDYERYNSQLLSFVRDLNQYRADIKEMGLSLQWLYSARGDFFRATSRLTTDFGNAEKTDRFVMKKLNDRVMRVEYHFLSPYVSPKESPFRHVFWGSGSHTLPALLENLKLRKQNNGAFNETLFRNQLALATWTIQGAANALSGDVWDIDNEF
Experimental: Selected anti-TfR1 antibodies were tested for their binding affinity to human TfR1 for measurement of Ka (association rate constant), Kd (dissociation rate constant), and KD (affinity). […] The binding experiment was performed on Carterra LSA at 25 C. An anti-mouse IgG and anti-human IgG antibody “lawn” was prepared on a HC30M chip by amine coupling. 59 IgGs (58 mouse mAbs and 1 human mAb) were captured on the chip. Dilution series of hTfR1, cyTfR1, and hTfR2 were injected to the chip for binding (starting from 1000 nM, 1:3 dilution, 8 concentrations).
Binding data were referenced by subtracting the responses from a buffer analyte injection and globally fitting to a 1:1 Langmuir binding model for estimate of Ka (association rate constant), Kd (dissociation rate constant), and KD (affinity) using the Carterra™ Kinetics software. 5-6 concentrations were used for curve fitting.

| Molecule | % knockdown of DMPK in NHP cells using Antibody-DMPK ASO conjugate (DMPK [1]) | % knockdown of DMPK in cells from human DM1 patients using Antibody-DMPK ASO conjugate (DMPK [2]) | activity in delivering a payload (DMPK ASO) and achieving DMPK knockdown compared to the control antibody 15G11 (DMPK [2]) | dissociation rate constant (koff) (hTfR1) |
| --- | --- | --- | --- | --- |
| 3-E5 (antibody, V domains shown) VH: EIQMKQSGAELVKPGASVKISCKASGYSFTGYNMNWVKQSHGKSLEWIGNINPYYGSTGYNQKFKGKATLTVDKSSSTAYMQLNSLTSEDSAVYYCARGDYGYDEGTWFAYWGQGTLVTVSA VL: DIVMSQSPSSLAVSAGEKVTMSCKSSQSLLNSRTRKNYLAWYQQKPEQSPKLLIYWASTRESGVPDRFTGSGSGTDFTLTISSVQAEDLAVYYCKQSYNLPFTFGSGTKLEIK | 59% | 71% | superior activity | – |
| 3-E05 (antibody, V domains shown) VH: EIQMKQSGAELVKPGASVKISCKASGYSFTGYNMNWVKQSHGKSLEWIGNINPYYGSTGYNQKFKGKATLTVDKSSSTAYMQLNSLTSEDSAVYYCARGDYGYDEGTWFAYWGQGTLVTVSA VL: DIVMSQSPSSLAVSAGEKVTMSCKSSQSLLNSRTRKNYLAWYQQKPEQSPKLLIYWASTRESGVPDRFTGSGSGTDFTLTISSVQAEDLAVYYCKQSYNLPFTFGSGTKLEIK | – | – | – | 10 µM |
| 8-D15: anti-TfR1 antibody, VH SEQ ID NO: 132, VL SEQ ID NO: 133 (antibody, V domains shown) VH: QVQLKESGPGLVAPSQSLSITCTVSGFSLTSYAITWVRQSPGKGLEWLGLIWTGGGTNYNSALKSRLSISKDNSKSQVFLKMNSLQTDDTARYYCARIYDGYYRYFDVWGTGTTVTVSS VL: RIVLTQTPKFLLVSAGDRVTMTCKASQSVSNDVAWYQQKPGQSPKLLIYYASNRYTGVPDRFTGSGYGTDFTFTISTVQAEDLAVYFCQQDYSSPWTFGGGTKLEIK | – | – | – | 257 µM |
| 5-H12 (antibody, V domains shown) VH: QIQLQQSGPELVRPGASVKISCKASGYSFTDYCINWVNQRPGQGLEWIGWIYPGSGNTRYSERFKGKATLTVDTSSNTAYMQLSSLTSEDSAVYFCAREDYYPYHGMDYWGQGTSVTVSS VL: DIVLTQSPTSLAVSLGQRATISCRASESVDGYDNSFMHWYQQKPGQPPKLLIFRASNLESGIPARFSGSGSRTDFTLTINPVEAADVATYYCQQSSEDPWTFGGGTKLEIK | 88% | 57% | superior activity | – |
| 3-A4 (antibody, V domains shown) VH: EVQLQQSGAELVRPGASVKLSCTASGFNIKDDYMYWVKQRPEQGLEWIGWIDPENGDTEYASKFQDKATVTADTSSNTAYLQLSSLTSEDTAVYYCTLWLRRGLDYWGQGTSVTVSS VL: DIVMTQAAPSVPVTPGESVSISCRSSKSLLHSNGYTYLFWFLQRPGQSPQLLIYRMSNLASGVPDRFSGSGSGTAFTLRISRVEAEDVGVYYCMQHLEYPFTFGGGTKLEIK | 77% | 70% | superior activity | – |
| 3-A04 (antibody, V domains shown) VH: EVQLQQSGAELVRPGASVKLSCTASGFNIKDDYMYWVKQRPEQGLEWIGWIDPENGDTEYASKFQDKATVTADTSSNTAYLQLSSLTSEDTAVYYCTLWLRRGLDYWGQGTSVTVSS VL: DIVMTQAAPSVPVTPGESVSISCRSSKSLLHSNGYTYLFWFLQRPGQSPQLLIYRMSNLASGVPDRFSGSGSGTAFTLRISRVEAEDVGVYYCMQHLEYPFTFGGGTKLEIK | – | – | – | 195 µM |
| 6-D03 (antibody, V domains shown) VH: QVQLQQPGAELVKPGASVKMSCKASGYTFTRHWITWVKQRPGQGLEWIGDIYPGSGRTNYNEKFKSTATLTVDTSSSTAYMQLSSLTSEDSAVYYCARDGYLYINYFDYWGQGTTLTVSS VL: ENVLTQSPAIMSASPGEKVTMTCSASSSVSFMHWFQQKSSTSPKLWIYDTSKLASGVPGRFSGSGSGSSYSLTISSMAAEDVATYYCFQGSGYPYTFGGGTKLEIK | – | – | – | 107 µM |
| 6-D3 (antibody, V domains shown) VH: QVQLQQPGAELVKPGASVKMSCKASGYTFTRHWITWVKQRPGQGLEWIGDIYPGSGRTNYNEKFKSTATLTVDTSSSTAYMQLSSLTSEDSAVYYCARDGYLYINYFDYWGQGTTLTVSS VL: ENVLTQSPAIMSASPGEKVTMTCSASSSVSFMHWFQQKSSTSPKLWIYDTSKLASGVPGRFSGSGSGSSYSLTISSMAAEDVATYYCFQGSGYPYTFGGGTKLEIK | −8% | −5% | – | – |
| 4-C05 (antibody, V domains shown) VH: QVQLQQSGAELMKPGASVKISCKATGYTFSNYWIEWVKQRPGHGLEWIGEILPGSGSTNYNENFKGKATFTADTSSNTAYMQLSSLTSEDSAVYYCARRGAYGNFHYWGQGTTLTVSS VL: EIVLTQSPALMAASPGEKVTITCSVSSSISSSNLHWYQQKSETSPKPWIYGTSNLASGVPVRFSGSGSGTSYSLTISSMEAEDAATYYCQQWRSYPYTFGGGTKLEIK | – | – | – | 48.5 µM |
| 10-H02 (antibody, V domains shown) VH: EVQLVESGGDLVKPGGSLKLSCAASGFTFSDYGMHWVRQGPEKGLEWVAYINSGSSTIYYADTVKGRFTISRDNAKNTLFLQMTSLRSEDTAMYYCARPGDYDNYAMDYWGQGTSVTVSS VL: DIVMTQSHKFLSTSVGDRVSITCKASQDVSVAVAWYQQKPGQSPKLLIYWAYTRHTGVPDRFTGSGSGTEYTLTISSVQAEDLALYYCQQHYNTPPWTFGGGTKLEIK | – | – | – | 342 µM |
| 9-D4 (antibody, V domains shown) VH: QVQLQQSGTELARPGASVKLSCKASGFTFTDYGINWVKQRTGQGLEWIGEIYPSSGNSYYNEKFKAKATLTADKSSSTAYMELRSLTSEDSAVYFCARSTYYGSPIDYWGQGTTLTVSS VL: DIVMTQSHKFMSTPVGDRVSITCKASQDVDTTVAWYQQKPGQSPKLLIYWASTRQIGVPDRFTGSGSGTDFTLTISNVQSEDLADYFCQQYSTYPLTFGGGTKLEIK | 42% | 62% | superior activity | – |
| 9-D04 (antibody, V domains shown) VH: QVQLQQSGTELARPGASVKLSCKASGFTFTDYGINWVKQRTGQGLEWIGEIYPSSGNSYYNEKFKAKATLTADKSSSTAYMELRSLTSEDSAVYFCARSTYYGSPIDYWGQGTTLTVSS VL: DIVMTQSHKFMSTPVGDRVSITCKASQDVDTTVAWYQQKPGQSPKLLIYWASTRQIGVPDRFTGSGSGTDFTLTISNVQSEDLADYFCQQYSTYPLTFGGGTKLEIK | – | – | – | 246 µM |
| 8-K6 (antibody, V domains shown) VH: QVHLQQPGAELVKPGASVKMSCKASGYTFTSYWITWVKQRPGQGLEWIGDIFPNSGRTNYDEKFKSKATLTVDTSSSTAYMQLSSLTSEDSAVYFCAREGNFGSLDYWGQGTTLTVSS VL: QIVLTQSPAIMSASPGEKVTMTCSANSNLNYMNWYHQKSGTSPKRWIYDTSKLASGVPARFSASGSGTSYSLTISSMEAEDAATYYCQQWSRNPLTFGAGTRLELK | 73% | 34% | superior activity | – |
| 8-K06 (antibody, V domains shown) VH: QVHLQQPGAELVKPGASVKMSCKASGYTFTSYWITWVKQRPGQGLEWIGDIFPNSGRTNYDEKFKSKATLTVDTSSSTAYMQLSSLTSEDSAVYFCAREGNFGSLDYWGQGTTLTVSS VL: QIVLTQSPAIMSASPGEKVTMTCSANSNLNYMNWYHQKSGTSPKRWIYDTSKLASGVPARFSASGSGTSYSLTISSMEAEDAATYYCQQWSRNPLTFGAGTRLELK | – | – | – | 10 µM |
| 9-C04 (antibody, V domains shown) VH: EVQLMESGGDLVKPGGSLKLSCAASGFTFSSYGLSWVRQTPDKRLEWVATITSGGSYTYYPDSVKGRFTISRDNARNTLYLQMFSLKSEDTAMYYCALWSLDYWGQGTTLTVSS VL: QIVLTQSPAIMSASPGEKVTMTCSANSSLSYMHWYQQKPGTSPKRWIYDTSELASGVPARFSGSGSGTSYSLTISSMEAEDAATYYCHQRRSYPWTFGGGTKLEIK | – | – | – | 575 µM |

From US20230144436A1, “MUSCLE TARGETING COMPLEXES AND USES THEREOF FOR TREATING MYOTONIC DYSTROPHY” (Dyne Therapeutics, Inc., priority 2020, published 2023)
